According to US20060058224A1, “Methods of treating obesity with combination therapeutics” (priority 2004, published 2006):

Legend:
[1] = tested on: DIO (Diet-Induced Obesity; AKR/J mice fed a high fat diet) mice; assay: Effect on body weight in a mouse model of obesity (DIO mice), daily treatment Day 0 to Day 21; type: in vivo; settings: Axokine 0.03 mg/kg SC, phentermine 10.0 mg/kg IP; for loss of starting body weight: after 21 days of daily treatment, control lost 2%; for body weight change in words (FIG. 1): daily administration
Experimental: FIG. 1 is a graph of the change in body weight as a percentage of weight at Day 0 from Day 0 to Day 21 food intake (24 hours) over time (Days —1 to 21) for diet-induced obese (DIO) mice treated with 0.9% NaCl (4 μl/g, intraperitoneal (IP) injection) and placebo (4 μl/g subcutaneous (SC) injection; Group A: Control ═X); Axokine™ (0.03 mg/kg, SC; Group B=⋄); phentermine (10.0 mg/kg, IP; Group C=□); Axokine™ (0.03 mg/kg, SC) and phentermine (10.0 mg/kg, IP; Group D=□); and pair fed to group B=⋄).
(§1) A study was conducted to determine the effect of the combination of phentermine and Axokine™ on body weight and food intake in a mouse model of obesity. 30 DIO (Diet-Induced Obesity; AKR/J mice fed a high fat diet) mice were divided into 5 equal groups (n=6 per group). Four groups were treated daily in the afternoon starting on Day 0 as follows: Group A (control): 0.9% NaCl (4 μl/g, intraperitoneal (IP) injection) and placebo (4 μl/g subcutaneous (SC) injection); Group B: Axokine™ (0.03 mg/kg, SC); Group C: phentermine (10.0 mg/kg, IP); Group D: Axokine™ (0.03 mg/kg, SC)+phentermine (10.0 mg/kg, IP). The […] group, Group E was pair fed to Group B; each animal in this group received the average amount of food the Axokine™ treated animals consumed the previous day. This treatment paradigm continued until Day 21 (last injection on Day 20). […] Animals who were pair-fed to the Axokine™ group, lost weight at a rate similar to that of the Axokine™ group up to Day 11 of the study. After this time, their weight loss reached a plateau.

[2] = tested on: DIO (Diet-Induced Obesity; AKR/J mice fed a high fat diet) mice; assay: 24 h food intake in DIO mice over the 21 day study; type: in vivo, mouse
Experimental: FIG. 2 is a graph of 24 h food intake monitored for the duration of the study for the DIO mice treated as described in the legend of FIG. 1.
as §1
After the second day of the study, control animals resumed their typical eating pattern, consuming approximately 4 g of food a day. Animals who received Axokine™ or were pair-fed, maintained this decreased food intake of about 2.75 g per day until Day 12 when they began to consume more food (3.5 g at the end of the study).

Molecule | loss of starting body weight [1] | body weight change in words (FIG. 1) [1] | food intake in words (FIG. 2) ([2]; daily treatment, Axokine 0.03 mg/kg SC, phentermine 10.0 mg/kg IP) | 24 h food intake at the end of the study ([2]; Axokine 0.03 mg/kg SC daily, end of the study (Day 21)) | 24 h food intake ([2]; Axokine 0.03 mg/kg SC daily, from Day 2 until Day 12, control approximately 4 g a day)
CC(C)(N)Cc1ccccc1 [phentermine, reference compound] | about 15% | significant decrease in body weight relative to control animals | decreased food intake relative to control | – | –
Axokine™: modified ciliary neurotrophic factor (CNTF) molecule, hCNTF C17A Q63R Δ15 (SEQ ID NO:3 or SEQ ID NO:4) (protein) MAFTEHSPLTPHRRDLASRSIWLARKIRSDLTALTESYVKHQGLNKNINLDSADGMPVASTDRWSELTEAERLQENLQAYRTFHVLLARLLEDQQVHFTPTEGDFHQAIHTLLLQVAAFAYQIEELMILLEYKIPRNEADGMPINVGDGGLFEKKLWGLKVLQELSQWTVRSIHDLRFISSHQTG | approximately 19% | significant decrease in body weight relative to control animals | – | 3.5 g | about 2.75 g per day
